The chains are these.
T1: human calcitonin receptor (human, UniProt P30988 25-474)
T1 sequence (looked up): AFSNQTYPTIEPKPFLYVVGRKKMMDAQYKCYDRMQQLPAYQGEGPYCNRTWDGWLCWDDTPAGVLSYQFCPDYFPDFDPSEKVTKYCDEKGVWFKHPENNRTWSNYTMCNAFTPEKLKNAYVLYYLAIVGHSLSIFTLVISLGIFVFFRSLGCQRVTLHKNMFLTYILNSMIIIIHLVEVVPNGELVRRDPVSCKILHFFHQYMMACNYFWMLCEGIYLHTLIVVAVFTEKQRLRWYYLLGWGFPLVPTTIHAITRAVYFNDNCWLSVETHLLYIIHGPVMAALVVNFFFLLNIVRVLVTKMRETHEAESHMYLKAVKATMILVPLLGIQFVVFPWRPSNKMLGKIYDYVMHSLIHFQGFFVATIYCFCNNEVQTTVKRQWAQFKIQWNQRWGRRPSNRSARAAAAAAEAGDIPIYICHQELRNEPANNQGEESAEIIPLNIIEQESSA

B1: N^ε1-[2-[2-[2-(19-carboxynonadecanoylamino)ethoxy]ethoxy]acetyl]-[Arg17,Pro21,Pro27]-h-amylin (peptide)
peptide: K([AEEA-C20 diacid])CNTATCATQRLANFLRHSSPNFGAIPSSTNVGSNTY-NH2
modifications: disulfide 2-7; N-terminus assumed
SMILES: CC[C@H](C)[C@H](NC(=O)[C@H](C)NC(=O)CNC(=O)[C@H](Cc1ccccc1)NC(=O)[C@H](CC(N)=O)NC(=O)[C@@H]1CCCN1C(=O)[C@H](CO)NC(=O)[C@H](CO)NC(=O)[C@H](Cc1c[nH]cn1)NC(=O)[C@H](CCCNC(=N)N)NC(=O)[C@H](CC(C)C)NC(=O)[C@H](Cc1ccccc1)NC(=O)[C@H](CC(N)=O)NC(=O)[C@H](C)NC(=O)[C@H](CC(C)C)NC(=O)[C@H](CCCNC(=N)N)NC(=O)[C@H](CCC(N)=O)NC(=O)[C@@H](NC(=O)[C@H](C)NC(=O)[C@@H]1CSSC[C@H](NC(=O)[C@@H](N)CCCCNC(=O)COCCOCCNC(=O)CCCCCCCCCCCCCCCCCCC(=O)O)C(=O)N[C@@H](CC(N)=O)C(=O)N[C@@H]([C@@H](C)O)C(=O)N[C@@H](C)C(=O)N[C@@H]([C@@H](C)O)C(=O)N1)[C@@H](C)O)C(=O)N1CCC[C@H]1C(=O)N[C@@H](CO)C(=O)N[C@@H](CO)C(=O)N[C@H](C(=O)N[C@@H](CC(N)=O)C(=O)N[C@H](C(=O)NCC(=O)N[C@@H](CO)C(=O)N[C@@H](CC(N)=O)C(=O)N[C@H](C(=O)N[C@@H](Cc1ccc(O)cc1)C(N)=O)[C@@H](C)O)C(C)C)[C@@H](C)O
notes: h-amylin derivative; disulfide bridge and C-terminal amide as told for human amylin; also called compound 43
B2: N^ε-[(4S)-4-carboxy-4-(19-carboxynonadecanoylamino)butanoyl]Lys[Arg1,Arg17,Pro21,Pro27,His35]-h-amylin (peptide)
peptide: K([γGlu-C20 diacid])RCNTATCATQRLANFLRHSSPNFGAIPSSTNVGSHTY-NH2
modifications: disulfide 3-8; N-terminus assumed
SMILES: CC[C@H](C)[C@H](NC(=O)[C@H](C)NC(=O)CNC(=O)[C@H](Cc1ccccc1)NC(=O)[C@H](CC(N)=O)NC(=O)[C@@H]1CCCN1C(=O)[C@H](CO)NC(=O)[C@H](CO)NC(=O)[C@H](Cc1c[nH]cn1)NC(=O)[C@H](CCCNC(=N)N)NC(=O)[C@H](CC(C)C)NC(=O)[C@H](Cc1ccccc1)NC(=O)[C@H](CC(N)=O)NC(=O)[C@H](C)NC(=O)[C@H](CC(C)C)NC(=O)[C@H](CCCNC(=N)N)NC(=O)[C@H](CCC(N)=O)NC(=O)[C@@H](NC(=O)[C@H](C)NC(=O)[C@@H]1CSSC[C@H](NC(=O)[C@H](CCCNC(=N)N)NC(=O)[C@@H](N)CCCCNC(=O)CC[C@H](NC(=O)CCCCCCCCCCCCCCCCCCC(=O)O)C(=O)O)C(=O)N[C@@H](CC(N)=O)C(=O)N[C@@H]([C@@H](C)O)C(=O)N[C@@H](C)C(=O)N[C@@H]([C@@H](C)O)C(=O)N1)[C@@H](C)O)C(=O)N1CCC[C@H]1C(=O)N[C@@H](CO)C(=O)N[C@@H](CO)C(=O)N[C@H](C(=O)N[C@@H](CC(N)=O)C(=O)N[C@H](C(=O)NCC(=O)N[C@@H](CO)C(=O)N[C@@H](Cc1c[nH]cn1)C(=O)N[C@H](C(=O)N[C@@H](Cc1ccc(O)cc1)C(N)=O)[C@@H](C)O)C(C)C)[C@@H](C)O
notes: h-amylin derivative, N-terminally extended by one residue; disulfide bridge and C-terminal amide as told for human amylin; also called compound 44
B3: N^ε1-[(4S)-4-carboxy-4-[[(4S)-4-carboxy-4-(19-carboxynonadecanoylamino)butanoyl]amino]butanoyl]-[Asp14,Arg17,Pro21,Pro27,Arg35]-h-amylin (peptide)
peptide: K([γGlu-γGlu-C20 diacid])CNTATCATQRLADFLRHSSPNFGAIPSSTNVGSRTY-NH2
modifications: disulfide 2-7; N-terminus assumed
SMILES: CC[C@H](C)[C@H](NC(=O)[C@H](C)NC(=O)CNC(=O)[C@H](Cc1ccccc1)NC(=O)[C@H](CC(N)=O)NC(=O)[C@@H]1CCCN1C(=O)[C@H](CO)NC(=O)[C@H](CO)NC(=O)[C@H](Cc1c[nH]cn1)NC(=O)[C@H](CCCNC(=N)N)NC(=O)[C@H](CC(C)C)NC(=O)[C@H](Cc1ccccc1)NC(=O)[C@H](CC(=O)O)NC(=O)[C@H](C)NC(=O)[C@H](CC(C)C)NC(=O)[C@H](CCCNC(=N)N)NC(=O)[C@H](CCC(N)=O)NC(=O)[C@@H](NC(=O)[C@H](C)NC(=O)[C@@H]1CSSC[C@H](NC(=O)[C@@H](N)CCCCNC(=O)CC[C@H](NC(=O)CC[C@H](NC(=O)CCCCCCCCCCCCCCCCCCC(=O)O)C(=O)O)C(=O)O)C(=O)N[C@@H](CC(N)=O)C(=O)N[C@@H]([C@@H](C)O)C(=O)N[C@@H](C)C(=O)N[C@@H]([C@@H](C)O)C(=O)N1)[C@@H](C)O)C(=O)N1CCC[C@H]1C(=O)N[C@@H](CO)C(=O)N[C@@H](CO)C(=O)N[C@H](C(=O)N[C@@H](CC(N)=O)C(=O)N[C@H](C(=O)NCC(=O)N[C@@H](CO)C(=O)N[C@@H](CCCNC(=N)N)C(=O)N[C@H](C(=O)N[C@@H](Cc1ccc(O)cc1)C(N)=O)[C@@H](C)O)C(C)C)[C@@H](C)O
notes: h-amylin derivative; disulfide bridge and C-terminal amide as told for human amylin; also called compound 52
B4: N^ε1-[(4S)-4-carboxy-4-[[(4S)-4-carboxy-4-(19-carboxynonadecanoylamino)butanoyl]amino]butanoyl]-[Asp14,Arg17,Pro21,Pro27,Asp35]-h-amylin (peptide)
peptide: K([γGlu-γGlu-C20 diacid])CNTATCATQRLADFLRHSSPNFGAIPSSTNVGSDTY-NH2
modifications: disulfide 2-7; N-terminus assumed
SMILES: CC[C@H](C)[C@H](NC(=O)[C@H](C)NC(=O)CNC(=O)[C@H](Cc1ccccc1)NC(=O)[C@H](CC(N)=O)NC(=O)[C@@H]1CCCN1C(=O)[C@H](CO)NC(=O)[C@H](CO)NC(=O)[C@H](Cc1c[nH]cn1)NC(=O)[C@H](CCCNC(=N)N)NC(=O)[C@H](CC(C)C)NC(=O)[C@H](Cc1ccccc1)NC(=O)[C@H](CC(=O)O)NC(=O)[C@H](C)NC(=O)[C@H](CC(C)C)NC(=O)[C@H](CCCNC(=N)N)NC(=O)[C@H](CCC(N)=O)NC(=O)[C@@H](NC(=O)[C@H](C)NC(=O)[C@@H]1CSSC[C@H](NC(=O)[C@@H](N)CCCCNC(=O)CC[C@H](NC(=O)CC[C@H](NC(=O)CCCCCCCCCCCCCCCCCCC(=O)O)C(=O)O)C(=O)O)C(=O)N[C@@H](CC(N)=O)C(=O)N[C@@H]([C@@H](C)O)C(=O)N[C@@H](C)C(=O)N[C@@H]([C@@H](C)O)C(=O)N1)[C@@H](C)O)C(=O)N1CCC[C@H]1C(=O)N[C@@H](CO)C(=O)N[C@@H](CO)C(=O)N[C@H](C(=O)N[C@@H](CC(N)=O)C(=O)N[C@H](C(=O)NCC(=O)N[C@@H](CO)C(=O)N[C@@H](CC(=O)O)C(=O)N[C@H](C(=O)N[C@@H](Cc1ccc(O)cc1)C(N)=O)[C@@H](C)O)C(C)C)[C@@H](C)O
notes: h-amylin derivative; disulfide bridge and C-terminal amide as told for human amylin; also called compound 2
B5: N{Alpha-1}-[(4S)-4-carboxy-4-(19-carboxynonadecanoylamino)butanoyl]-[Glu14,Arg17,Pro21,Pro27,Lys34]-h-amylin (peptide)
peptide: {C20 diacid-γGlu}-KCNTATCATQRLAEFLRHSSPNFGAIPSSTNVGKNTY-NH2
modifications: disulfide 2-7
SMILES: CC[C@H](C)[C@H](NC(=O)[C@H](C)NC(=O)CNC(=O)[C@H](Cc1ccccc1)NC(=O)[C@H](CC(N)=O)NC(=O)[C@@H]1CCCN1C(=O)[C@H](CO)NC(=O)[C@H](CO)NC(=O)[C@H](Cc1c[nH]cn1)NC(=O)[C@H](CCCNC(=N)N)NC(=O)[C@H](CC(C)C)NC(=O)[C@H](Cc1ccccc1)NC(=O)[C@H](CCC(=O)O)NC(=O)[C@H](C)NC(=O)[C@H](CC(C)C)NC(=O)[C@H](CCCNC(=N)N)NC(=O)[C@H](CCC(N)=O)NC(=O)[C@@H](NC(=O)[C@H](C)NC(=O)[C@@H]1CSSC[C@H](NC(=O)[C@H](CCCCN)NC(=O)CC[C@H](NC(=O)CCCCCCCCCCCCCCCCCCC(=O)O)C(=O)O)C(=O)N[C@@H](CC(N)=O)C(=O)N[C@@H]([C@@H](C)O)C(=O)N[C@@H](C)C(=O)N[C@@H]([C@@H](C)O)C(=O)N1)[C@@H](C)O)C(=O)N1CCC[C@H]1C(=O)N[C@@H](CO)C(=O)N[C@@H](CO)C(=O)N[C@H](C(=O)N[C@@H](CC(N)=O)C(=O)N[C@H](C(=O)NCC(=O)N[C@@H](CCCCN)C(=O)N[C@@H](CC(N)=O)C(=O)N[C@H](C(=O)N[C@@H](Cc1ccc(O)cc1)C(N)=O)[C@@H](C)O)C(C)C)[C@@H](C)O
notes: h-amylin derivative; disulfide bridge and C-terminal amide as told for human amylin; also called compound 36
B6: N^ε1-[2-[2-[2-[[(4S)-4-carboxy-4-(19-carboxynonadecanoylamino)butanoyl]amino]ethoxy]ethoxy]acetyl]-[Arg17,Pro21,Pro27]-h-amylin (peptide)
peptide: K([AEEA-γGlu-C20 diacid])CNTATCATQRLANFLRHSSPNFGAIPSSTNVGSNTY-NH2
modifications: disulfide 2-7; N-terminus assumed
SMILES: CC[C@H](C)[C@H](NC(=O)[C@H](C)NC(=O)CNC(=O)[C@H](Cc1ccccc1)NC(=O)[C@H](CC(N)=O)NC(=O)[C@@H]1CCCN1C(=O)[C@H](CO)NC(=O)[C@H](CO)NC(=O)[C@H](Cc1c[nH]cn1)NC(=O)[C@H](CCCNC(=N)N)NC(=O)[C@H](CC(C)C)NC(=O)[C@H](Cc1ccccc1)NC(=O)[C@H](CC(N)=O)NC(=O)[C@H](C)NC(=O)[C@H](CC(C)C)NC(=O)[C@H](CCCNC(=N)N)NC(=O)[C@H](CCC(N)=O)NC(=O)[C@@H](NC(=O)[C@H](C)NC(=O)[C@@H]1CSSC[C@H](NC(=O)[C@@H](N)CCCCNC(=O)COCCOCCNC(=O)CC[C@H](NC(=O)CCCCCCCCCCCCCCCCCCC(=O)O)C(=O)O)C(=O)N[C@@H](CC(N)=O)C(=O)N[C@@H]([C@@H](C)O)C(=O)N[C@@H](C)C(=O)N[C@@H]([C@@H](C)O)C(=O)N1)[C@@H](C)O)C(=O)N1CCC[C@H]1C(=O)N[C@@H](CO)C(=O)N[C@@H](CO)C(=O)N[C@H](C(=O)N[C@@H](CC(N)=O)C(=O)N[C@H](C(=O)NCC(=O)N[C@@H](CO)C(=O)N[C@@H](CC(N)=O)C(=O)N[C@H](C(=O)N[C@@H](Cc1ccc(O)cc1)C(N)=O)[C@@H](C)O)C(C)C)[C@@H](C)O
notes: h-amylin derivative; disulfide bridge and C-terminal amide as told for human amylin; also called compound 41

Numbered stars: 1 amine (or outer) side, 2 acyl side, 3 side chain; on linkers, the order of the positions; unused ones are H or OH. Bridge positions count the residues as written; N and C are the ends. Side chains are listed from the residue outwards. Ends that are not written are not given here. * marks the point of attachment. C20 diacid = O=C(O)CCCCCCCCCCCCCCCCCCC(=O)*; γGlu = O=C(O)[C@H](CCC(=O)[*:2])N[*:1]; AEEA = NCCOCCOCC(=O)O

This is an account of results in patent publication US20140087995A1 (published 2014).

The target in this test is T1, human calcitonin receptor. Briefly: cell-based or functional assay.
For the molecule B1, the “hCTR funct. EC50” value was 0.92 nM.

In the case of B2, the “hCTR funct. EC50” value turned out to be 4.75 nM. With B3, the “hCTR funct. EC50” value worked out at 14.1 nM. For B4, the “hCTR funct. EC50” value was determined as 3 nM. As to B5, the “hCTR funct. EC50” value was found to be 1.28 nM. For the molecule B6, the “hCTR funct. EC50” value was found to be 4.35 nM.
